Our source for the fraction ligated values is the supplement of paper PMC6755084.

The series deals with F1*sub RNA substrate (template-directed ligation). Nature of the series: fraction ligated after 30 min (ligated reads / total reads); higher = more ligase activity; sequences stand for … in GAGACCGCAACTGAAAAGTTGT…AGTTCTGCACGTAGAAGCAAAAGGC
Conditions: 42 °C. A digest of the protocol:
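The ligase ribozyme variants were produced by PCR amplification of oligo-pool templates, T7 transcription and purification on gel. Their ligated and unligated forms were gel-separated, then reverse transcribed with barcoded primers before MiSeq sequencing. Core bases were filtered at a quality of ≥20, and fraction ligated per variant was ligated reads over total reads.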
With TATACTTGTCGTAAGACACTTTGGAGGTTGA [3d942], the fraction ligated worked out at 0.00359.

On to TATACTTGTCGTAAGACACTTTGGATGGGTT [3d947], for which the fraction ligated is 0.00683.

TATACTTGTCGTAAGACACTTTGGATGGGTTA [2d88] showed a fraction ligated of 0.0592.

As to TATACTTGTCGTAAGACACTTTGGATGGGTTG [2d89], the fraction ligated was 0.733.

Regarding TATACTTGTCGTAAGACACTTTGGATGGGTTGA [1d4], the fraction ligated came to 0.791.

For the sequence TATACTTGTCGTAAGACACTTTGGATGGTTA [3d945], the fraction ligated was 0.0396.

On to TATACTTGTCGTAAGACACTTTGGATGGTTG [3d946], for which the fraction ligated was determined as 0.0597.

On to TATACTTGTCGTAAGACACTTTGGATGGTTGA [2d87], for which the fraction ligated was 0.127.

Sequence TATACTTGTCGTAAGACACTTTGGGGGTTGA [3d938] showed a fraction ligated of 0.0526.

TATACTTGTCGTAAGACACTTTGGTGGGTTA [3d940]: the fraction ligated stood at 0.00259.

Sequence TATACTTGTCGTAAGACACTTTGGTGGGTTG [3d941] displayed a fraction ligated of 0.0139.

On to TATACTTGTCGTAAGACACTTTGGTGGGTTGA [2d85], for which the fraction ligated came out at 0.0569.

In turn, TATACTTGTCGTAAGACACTTTGGTGGTTGA [3d939] registered a fraction ligated of 0.00845.

In turn, TATACTTGTCGTAAGACACTTTGTGGGTTGA [3d933] registered a fraction ligated of 0.0152.

TATACTTGTCGTAAGACATTGGATGGGTTGA [3d918] registered a fraction ligated of 0.786.

Take TATACTTGTCGTAAGACATTTGATGGGTTGA [3d919]: the fraction ligated amounted to 0.735.

In turn, TATACTTGTCGTAAGACATTTGGAGGGTTGA [3d921] had a fraction ligated of 0.0163.

The sequence TATACTTGTCGTAAGACATTTGGATGGGTTA [3d923] showed a fraction ligated of 0.0964.

TATACTTGTCGTAAGACATTTGGATGGGTTG [3d924] came in with a fraction ligated of 0.714.

TATACTTGTCGTAAGACATTTGGATGGGTTGA [2d82]: the fraction ligated is 0.751.

As for TATACTTGTCGTAAGACATTTGGATGGTTGA [3d922], the fraction ligated is 0.0978.

Regarding TATACTTGTCGTAAGACATTTGGTGGGTTGA [3d920], the fraction ligated was determined as 0.0527.

TATACTTGTCGTAAGACCTTGGATGGGTTGA [3d911]: the fraction ligated worked out at 0.777.

TATACTTGTCGTAAGACCTTTGATGGGTTGA [3d912] had a fraction ligated of 0.706.

On to TATACTTGTCGTAAGACCTTTGGAGGGTTGA [3d914], for which the fraction ligated is 0.0249.

In turn, TATACTTGTCGTAAGACCTTTGGATGGGTTA [3d916] gave a fraction ligated of 0.059.

Sequence TATACTTGTCGTAAGACCTTTGGATGGGTTG [3d917] showed a fraction ligated of 0.719.

The sequence TATACTTGTCGTAAGACCTTTGGATGGGTTGA [2d81] had a fraction ligated of 0.746.

TATACTTGTCGTAAGACCTTTGGATGGTTGA [3d915]: the fraction ligated was determined as 0.0819.

Sequence TATACTTGTCGTAAGACCTTTGGTGGGTTGA [3d913] registered a fraction ligated of 0.0382.

TATACTTGTCGTAAGACTTTGGATGGGTTGA [3d893] came in with a fraction ligated of 0.758.

In turn, TATACTTGTCGTAAGCACTTGGATGGGTTGA [3d896] yielded a fraction ligated of 0.645.

The sequence TATACTTGTCGTAAGCACTTTGATGGGTTGA [3d897] returned a fraction ligated of 0.703.

Sequence TATACTTGTCGTAAGCACTTTGGAGGGTTGA [3d899] registered a fraction ligated of 0.0271.

TATACTTGTCGTAAGCACTTTGGATGGGTTA [3d901] displayed a fraction ligated of 0.0196.

TATACTTGTCGTAAGCACTTTGGATGGGTTG [3d902] came in with a fraction ligated of 0.502.

In turn, TATACTTGTCGTAAGCACTTTGGATGGGTTGA [2d79] registered a fraction ligated of 0.778.

As for TATACTTGTCGTAAGCACTTTGGATGGTTGA [3d900], the fraction ligated came to 0.0214.

In turn, TATACTTGTCGTAAGCACTTTGGTGGGTTGA [3d898] yielded a fraction ligated of 0.025.

In turn, TATACTTGTCGTAAGCATTTGGATGGGTTGA [3d895] gave a fraction ligated of 0.747.

Sequence TATACTTGTCGTAAGCCTTTGGATGGGTTGA [3d894] had a fraction ligated of 0.68.

On to TATACTTGTCGTAGAACTTTGGATGGGTTGA [3d873], for which the fraction ligated turned out to be 0.831.

Take TATACTTGTCGTAGACACTTGGATGGGTTGA [3d876]: the fraction ligated is 0.61.

The sequence TATACTTGTCGTAGACACTTTGATGGGTTGA [3d877] registered a fraction ligated of 0.36.

As to TATACTTGTCGTAGACACTTTGGAGGGTTGA [3d879], the fraction ligated turned out to be 0.0209.

TATACTTGTCGTAGACACTTTGGATGGGTTA [3d881] yielded a fraction ligated of 0.00736.

Sequence TATACTTGTCGTAGACACTTTGGATGGGTTG [3d882] gave a fraction ligated of 0.232.

In the case of TATACTTGTCGTAGACACTTTGGATGGGTTGA [2d77], the fraction ligated was 0.67.

In the case of TATACTTGTCGTAGACACTTTGGATGGTTGA [3d880], the fraction ligated came out at 0.0359.

TATACTTGTCGTAGACACTTTGGTGGGTTGA [3d878] came in with a fraction ligated of 0.0282.

As to TATACTTGTCGTAGACATTTGGATGGGTTGA [3d875], the fraction ligated was 0.759.

As for TATACTTGTCGTAGACCTTTGGATGGGTTGA [3d874], the fraction ligated is 0.616.

TATACTTGTCGTAGCACTTTGGATGGGTTGA [3d872] came in with a fraction ligated of 0.787.

In turn, TATACTTGTCGTGACACTTTGGATGGGTTGA [3d870] displayed a fraction ligated of 0.708.

Consider TATACTTGTCTAAACACTTTGGATGGGTTGA [3d845], for which the fraction ligated was 0.791.

TATACTTGTCTAAGAACTTTGGATGGGTTGA [3d847] returned a fraction ligated of 0.765.

Consider TATACTTGTCTAAGACACTTGGATGGGTTGA [3d850], for which the fraction ligated is 0.766.

TATACTTGTCTAAGACACTTTGATGGGTTGA [3d851] came in with a fraction ligated of 0.719.

Sequence TATACTTGTCTAAGACACTTTGGAGGGTTGA [3d853] gave a fraction ligated of 0.0271.

In the case of TATACTTGTCTAAGACACTTTGGATGGGTTA [3d855], the fraction ligated was 0.0424.

Take TATACTTGTCTAAGACACTTTGGATGGGTTG [3d856]: the fraction ligated came out at 0.633.

In turn, TATACTTGTCTAAGACACTTTGGATGGGTTGA [2d75] had a fraction ligated of 0.797.

In turn, TATACTTGTCTAAGACACTTTGGATGGTTGA [3d854] came in with a fraction ligated of 0.0769.

For the sequence TATACTTGTCTAAGACACTTTGGTGGGTTGA [3d852], the fraction ligated was found to be 0.0368.

Turning to TATACTTGTCTAAGACATTTGGATGGGTTGA [3d849], the fraction ligated is 0.811.

In turn, TATACTTGTCTAAGACCTTTGGATGGGTTGA [3d848] registered a fraction ligated of 0.481.

As to TATACTTGTCTAAGCACTTTGGATGGGTTGA [3d846], the fraction ligated was 0.779.

Turning to TATACTTGTCTAGACACTTTGGATGGGTTGA [3d844], the fraction ligated worked out at 0.732.

TATACTTGTGAAGACACTTTGGATGGGTTGA [3d829] came in with a fraction ligated of 0.756.

The sequence TATACTTGTGTAAACACTTTGGATGGGTTGA [3d831] had a fraction ligated of 0.799.

On to TATACTTGTGTAAGAACTTTGGATGGGTTGA [3d833], for which the fraction ligated was 0.814.

Turning to TATACTTGTGTAAGACACTTGGATGGGTTGA [3d836], the fraction ligated was 0.756.

TATACTTGTGTAAGACACTTTGATGGGTTGA [3d837] came in with a fraction ligated of 0.81.
